Assay results from PMC2424174 (2008).
Where no end group is shown, it is not given here. Ahx = NCCCCCC(=O)O

Columns and labels:
[1] = target: Nucleolin (cell surface, HUVECs) (Homo sapiens, UniProt P19338); test: iodinated HB-19 cell binding displaced by unlabeled HB-19
[2] = target: Nucleolin (cell surface, MDA-MB-231 cells) (Homo sapiens, UniProt P19338); test: as above
Chain of Nucleolin (cell surface, MDA-MB-231 cells) (P19338 2-710): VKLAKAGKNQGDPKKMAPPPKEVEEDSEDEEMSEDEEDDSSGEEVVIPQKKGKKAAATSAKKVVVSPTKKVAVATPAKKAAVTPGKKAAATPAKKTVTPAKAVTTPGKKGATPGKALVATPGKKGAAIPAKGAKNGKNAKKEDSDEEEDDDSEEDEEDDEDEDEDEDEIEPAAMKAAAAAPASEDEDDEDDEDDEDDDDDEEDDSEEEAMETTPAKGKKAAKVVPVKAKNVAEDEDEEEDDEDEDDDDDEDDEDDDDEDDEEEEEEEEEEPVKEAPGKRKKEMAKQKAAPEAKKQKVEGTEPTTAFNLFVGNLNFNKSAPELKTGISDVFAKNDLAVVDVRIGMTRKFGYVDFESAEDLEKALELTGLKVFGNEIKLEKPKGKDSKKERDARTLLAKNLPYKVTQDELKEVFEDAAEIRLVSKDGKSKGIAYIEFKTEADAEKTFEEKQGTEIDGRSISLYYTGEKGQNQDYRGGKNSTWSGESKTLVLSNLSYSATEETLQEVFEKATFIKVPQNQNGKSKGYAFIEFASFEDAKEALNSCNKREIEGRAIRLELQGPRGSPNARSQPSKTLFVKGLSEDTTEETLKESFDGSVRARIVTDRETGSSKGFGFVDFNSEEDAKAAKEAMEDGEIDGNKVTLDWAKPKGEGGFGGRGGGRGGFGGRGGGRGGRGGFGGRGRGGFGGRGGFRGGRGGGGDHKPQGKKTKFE

Chain of Nucleolin (cell surface, HUVECs) (P19338 2-710): as above

Kd [1]: 825 nM
Kd [2]: 312 nM
B1: HB-19 pseudopeptide (peptide)
chain: KKKGPKEK-{Ahx-NH2}
modifications: also: pentavalent Lys-psi(CH2N)-Pro-Arg on template, attachment places not given here, reduced psi(CH2N) bond Lys-Pro
